Measured values as given in patent publication US20190381169A1, “PHARMACEUTICAL COMBINATIONS FOR IMMUNOTHERAPY” (Technische Universitat Dresden, priority 2014, published 2019).
Entries after “also recorded” stand apart in the source; their conditions may differ.

Molecular target: T1, p75^NTR (Homo sapiens, UniProt P08138)
T1 sequence (P08138 29-427): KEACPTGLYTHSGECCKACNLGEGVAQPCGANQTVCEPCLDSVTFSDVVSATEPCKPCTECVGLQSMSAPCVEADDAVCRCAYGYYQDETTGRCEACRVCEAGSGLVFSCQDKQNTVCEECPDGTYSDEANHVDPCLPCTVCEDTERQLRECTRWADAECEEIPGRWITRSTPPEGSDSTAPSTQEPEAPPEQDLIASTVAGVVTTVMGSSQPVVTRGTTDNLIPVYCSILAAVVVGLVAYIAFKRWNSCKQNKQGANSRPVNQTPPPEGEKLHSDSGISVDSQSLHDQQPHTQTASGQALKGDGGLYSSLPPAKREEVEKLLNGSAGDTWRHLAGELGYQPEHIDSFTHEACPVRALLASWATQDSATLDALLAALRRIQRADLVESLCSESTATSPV
Test: Antigen mediated proliferation and cytokine secretion of CD4+ T-cells co-cultured with autologous PDC of allergic donors
Type: cell-based
Design: nerve growth factor receptor p75^NTR, which is expressed by human and murine plasmacytoid dendritic cells (PDC); endogenous in cells; host or cells: primary human plasmacytoid dendritic cells (BDCA-4+ selection) from buffy coats or from peripheral blood of allergic donors
Experimental: CD4^+ T helper cells and PDC used in antigen mediated autologous CD4^+ T-cell proliferation assays were purified from peripheral blood (80 ml) obtained from specified donors who are known to have allergy against certain allergens. Peripheral blood was drawn in tubes containing Li-Heparin as anti-coagulant (S-Monovette Li-Heparin 7.5 ml, Sarstedt). CD4^+ T helper cells were purified from peripheral blood mononuclear cells by negative selection using CD4^+ T-cell isolation kit II (Miltenyi Biotec), as per manufacturer's instructions with slight modifications. Briefly, the cell pellet was re-suspended in 50 μl PBS E/B. Then 12 μl of Biotin-labelled antibody cocktail per 10^7 total cells were added and the cell suspension was incubated at 4° C. for 15 minutes. 50 μl of PBS E/B was added followed by addition of 25 μl of anti-biotin microbeads per 10^7 total cells. Cells were incubated at 4° C. for another 20 minutes, followed by washing with 10 ml PBS E/B and centrifugation (470 g for 6 minutes). […] The purity of isolated CD4^+ T helper cells was over 95% as assessed by flow cytometric analysis after co-staining with monoclonal mouse anti human CD3-PE (BD Biosciences) and monoclonal mouse anti human CD4-FITC (BD Biosciences). […]
Purified CD4^+ T helper cells (see above) were washed once with PBS. […] Cell number was determined.
Antigen mediated CD4^+ T helper cell proliferation responses were assayed using purified and CFSE labelled CD4^+ T helper cells in co-culture with purified PDC/BDAC4^+ cells. […] After 5 days of co-culture, supernatant was analyzed for Th1/Th2 cytokines by using BD cytokine bead array (CBA) Human Th1/Th2 cytokine kit (BD Biosciences) and percentages of proliferating CFSE-low CD4^+ T-cells were analyzed by flow cytometry.
The concentrations of IL-2, IL-4, IL-5, IL-10, IFNγ and TNFα in the supernatant were determined by using the CBA kit following manufacturer's instruction with modification in data analysis using Microsoft Excel. […]

NGF: Nerve growth factor, best characterized neurotrophin; natural p75^NTR agonist (R&D Systems)
secretion of IL-2 and IL-5 (CD4+ T-cell/PDC co-culture with allergen, NGF vs without NGF): dose-dependent increased secretion; also recorded: increasing secretion
antigen (allergen) mediated CD4+ T-cells proliferation (CFSE) (co-culture with autologous PDC plus specific allergen, NGF (25 ng/ml elsewhere in the source) vs without NGF, 5 days): significantly increased; also recorded: increased proliferation
proliferation of T-cells on its own (without PDC co-culture) (with or without antigen plus minus NGF or with NGF alone): did not show any proliferation
